Patent publication US20230099801A1, “RESTORATION OF T CELL ACTIVITY VIA THE CD39/CD73 AXIS” (INNATE PHARMA, priority 2017, published 2023)
“Also recorded” adds a separate entry of the source.

Experiments:
[1] = system: monocyte-derived DC (moDC); test: Activation of dendritic cells in presence of ATP; format: cell-based, human; settings: ATP at each of 0.125 mM, 0.25 mM or 0.5 mM; I-394 at 10 μg/ml
Procedure: While ATP has pro-inflammatory activity, CD39-mediated catabolism of ATP is believed to be able to impair dendritic cell (DC) activation, in turn altering a broader adaptive immune response against tumor antigen. In order to evaluate whether CD39 blockade using anti-CD39 antibodies could overcome CD39-mediated alteration of dendritic cell (DC) activation in the presence of ATP, we incubated monocyte-derived DC (moDC) with anti-CD39 antibodies in the presence of ATP.
Briefly, human monocytes were purified from human healthy blood and differentiated into MoDC in presence of GM-CSF and IL-4 during 6 days. […] LPS (Invivogen, 10 ng/ml) was used as positive control. To assess resulting effect of ATP-mediated DC activation on CD4 T cells activation, ATP-activated DC were washed and then incubated with allogenic CD4 T cells (ratio 1 MoDC/4 T cells) for a mixed lymphocytes reaction (MLR) during 5 days. T cells activation and proliferation were analyzed through CD25 expression and Cell Trace Violet dilution by flow cytometry (FIG. 8).

[2] = target: T1, CHO cells expressing murine CD39 (CHO-moCD39) (Mus musculus, UniProt P55772); test: Antibody titration on CHO-moCD39 cells by flow cytometry; format: binding
T1 construct: expressed in transfected cells; host or cells: CHO cells
T1 sequence (P55772 1-510): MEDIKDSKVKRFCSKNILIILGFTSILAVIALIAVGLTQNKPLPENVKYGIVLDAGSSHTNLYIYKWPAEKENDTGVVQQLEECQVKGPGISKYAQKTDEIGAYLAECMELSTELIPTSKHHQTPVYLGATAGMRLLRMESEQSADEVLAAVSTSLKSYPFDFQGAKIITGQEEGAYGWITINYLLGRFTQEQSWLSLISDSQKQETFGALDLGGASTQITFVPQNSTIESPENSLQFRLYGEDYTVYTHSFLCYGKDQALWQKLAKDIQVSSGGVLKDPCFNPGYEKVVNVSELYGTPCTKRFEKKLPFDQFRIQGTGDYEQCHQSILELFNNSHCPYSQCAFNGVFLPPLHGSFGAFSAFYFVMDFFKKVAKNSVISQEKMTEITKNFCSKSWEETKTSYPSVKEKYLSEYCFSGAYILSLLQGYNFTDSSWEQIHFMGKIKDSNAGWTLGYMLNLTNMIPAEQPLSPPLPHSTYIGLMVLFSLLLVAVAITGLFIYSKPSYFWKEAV
Procedure: (§1) Cells were incubated with various concentration of unlabeled anti-CD39 antibody from 30 μg/ml to 5×10^−4 μg/ml, for 30 minutes at 4° C. After washes, cells were incubated with Goat anti-mouse H+L labeled secondary antibody for 30 min at 4° C.

[3] = target: T2, Human CD39-L4 (NTPDase5, ENTPD5) (Homo sapiens, UniProt O75356); test: ELISA titration on CD39-L4; format: binding
T2 sequence (O75356 25-428): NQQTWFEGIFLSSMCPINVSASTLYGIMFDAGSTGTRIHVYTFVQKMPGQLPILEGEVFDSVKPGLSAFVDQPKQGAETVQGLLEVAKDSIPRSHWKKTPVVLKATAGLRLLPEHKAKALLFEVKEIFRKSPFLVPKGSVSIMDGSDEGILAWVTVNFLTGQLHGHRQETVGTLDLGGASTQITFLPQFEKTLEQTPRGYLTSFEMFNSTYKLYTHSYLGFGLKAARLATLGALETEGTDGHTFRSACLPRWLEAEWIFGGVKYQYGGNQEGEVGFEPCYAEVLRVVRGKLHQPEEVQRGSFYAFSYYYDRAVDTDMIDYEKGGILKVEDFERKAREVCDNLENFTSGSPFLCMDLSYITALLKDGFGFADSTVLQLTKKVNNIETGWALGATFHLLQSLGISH
Procedure: Wells were washed in TBS Tween 20, and further saturated 2H at RT in TBS Blocking buffer. Dose range concentration of primary antibody was incubated in TBS blocking buffer for 2h at RT. Wells were washed in TBS Tween 20. […] Optical density was measured on Enspire™ at OD=450.

allogenic CD4 T cells = test: Mixed lymphocytes reaction (MLR) of ATP-activated MoDC with allogenic CD4 T cells; format: cell-based, human; settings: MoDC activated in presence of ATP
Procedure: Briefly, human monocytes were purified from human healthy blood and differentiated into MoDC in presence of GM-CSF and IL-4 during 6 days. Then MoDC were activated in presence of ATP (Sigma, 0.25-1 mM) during 24 hours and DC activation were assessed by analyzing CD80, CD83 and HLA-DR expression by flow cytometry. […] LPS (Invivogen, 10 ng/ml) was used as positive control. To assess resulting effect of ATP-mediated DC activation on CD4 T cells activation, ATP-activated DC were washed and then incubated with allogenic CD4 T cells (ratio 1 MoDC/4 T cells) for a mixed lymphocytes reaction (MLR) during 5 days. T cells activation and proliferation were analyzed through CD25 expression and Cell Trace Violet dilution by flow cytometry (FIG. 8).

[4] = system: CHO cells expressing cynomolgus CD39 (CHO-cyCD39); test: Antibody titration on CHO-cyCD39 cells by flow cytometry; format: binding, cynomolgus (Macaca fascicularis)
Procedure: as §1

binding to cells expressing murine CD39 [2]: not to cells expressing murine CD39
binding to CD39-L4 in ELISA [3]: not to any of the human isoforms
B1: I-394: anti-CD39 antibody, VH SEQ ID NO: 6, VL SEQ ID NO: 7; heavy/light chains SEQ ID NOS: 52 and 53 (antibody)
heavy: EVQLQQSGPELVKPGASVKMSCKASGYTFTDYNMHWVKQSHGRTLEWIGYIVPLNGGSTFNQKFKGRATLTVNTSSRTAYMELRSLTSEDSAAYYCARGGTRFAYWGQGTLVTVSAASTKGPSVFPLAPSSKSTSGGTAALGCLVKDYFPEPVTVSWNSGALTSGVHTFPAVLQSSGLYSLSSVVTVPSSSLGTQTYICNVNHKPSNTKVDKRVEPKSCDKTHTCPPCPAPEAEGAPSVFLFPPKPKDTLMISRTPEVTCVVVDVSHEDPEVKFNWYVDGVEVHNAKTKPREEQYNSTYRVVSVLTVLHQDWLNGKEYKCKVSNKALPSSIEKTISKAKGQPREPQVYTLPPSREEMTKNQVSLTCLVKGFYPSDIAVEWESNGQPENNYKTTPPVLDSDGSFFLYSKLTVDKSRWQQGNVFSCSVMHEALHNHYTQKSLSLSPGK
light: DIVLTQSPASLAVSLGQRATISCRASESVDNFGVSFMYWFQQKPGQPPNLLIYGASNQGSGVPARFRGSGSGTDFSLNIHPMEADDTAMYFCQQTKEVPYTFGGGTKLEIKRTVAAPSVFIFPPSDEQLKSGTASVVCLLNNFYPREAKVQWKVDNALQSGNSQESVTEQDSKDSTYSLSSTLTLSKADYEKHKVYACEVTHQGLSSPVTKSFNRGEC
modifications: Chimeric homo sapiens mus musculus
moDC activation as assessed by HLA-DR or CD83 expression [1]: permitted moDC activation; also recorded: lead to moDC activation
T cell proliferation and activation (CD25 expression, Cell Trace Violet dilution) in MLR (allogenic CD4 T cells): higher T cell proliferation and activation
binding to cells expressing cynomolgus CD39 [4]: bound; also recorded: binds
